Sequences and labels used below:
B1: Ubiquitin carboxyl-terminal hydrolase 1 (Homo sapiens), O94782 (parent)
chain: MPGVIPSESNGLSRGSPSKKNRLSLKFFQKKETKRALDFTDSQENEEKASEYRASEIDQVVPAAQSSPINCEKRENLLPFVGLNNLGNTCYLNSILQVLYFCPGFKSGVKHLFNIISRKKEALKDEANQKDKGNCKEDSLASYELICSLQSLIISVEQLQASFLLNPEKYTDELATQPRRLLNTLRELNPMYEGYLQHDAQEVLQCILGNIQETCQLLKKEEVKNVAELPTKVEEIPHPKEEMNGINSIEMDSMRHSEDFKEKLPKGNGKRKSDTEFGNMKKKVKLSKEHQSLEENQRQTRSKRKATSDTLESPPKIIPKYISENESPRPSQKKSRVKINWLKSATKQPSILSKFCSLGKITTNQGVKGQSKENECDPEEDLGKCESDNTTNGCGLESPGNTVTPVNVNEVKPINKGEEQIGFELVEKLFQGQLVLRTRCLECESLTERREDFQDISVPVQEDELSKVEESSEISPEPKTEMKTLRWAISQFASVERIVGEDKYFCENCHHYTEAERSLLFDKMPEVITIHLKCFAASGLEFDCYGGGLSKINTPLLTPLKLSLEEWSTKPTNDSYGLFAVVMHSGITISSGHYTASVKVTDLNSLELDKGNFVVDQMCEIGKPEPLNEEEARGVVENYNDEEVSIRVGGNTQPSKVLNKKNVEAIGLLGGQKSKADYELYNKASNPDKVASTAFAENRNSETSDTTGTHESDRNKESSDQTGINISGFENKISYVVQSLKEYEGKWLLFDDSEVKVTEEKDFLNSLSPSTSPTSTPYLLFYKKL

Variants of B1 are the subject of the assay. Particulars: with WDR48, Q8TAF3-1.
WDR48, Q8TAF3-1, sequence (Q8TAF3 whole entry): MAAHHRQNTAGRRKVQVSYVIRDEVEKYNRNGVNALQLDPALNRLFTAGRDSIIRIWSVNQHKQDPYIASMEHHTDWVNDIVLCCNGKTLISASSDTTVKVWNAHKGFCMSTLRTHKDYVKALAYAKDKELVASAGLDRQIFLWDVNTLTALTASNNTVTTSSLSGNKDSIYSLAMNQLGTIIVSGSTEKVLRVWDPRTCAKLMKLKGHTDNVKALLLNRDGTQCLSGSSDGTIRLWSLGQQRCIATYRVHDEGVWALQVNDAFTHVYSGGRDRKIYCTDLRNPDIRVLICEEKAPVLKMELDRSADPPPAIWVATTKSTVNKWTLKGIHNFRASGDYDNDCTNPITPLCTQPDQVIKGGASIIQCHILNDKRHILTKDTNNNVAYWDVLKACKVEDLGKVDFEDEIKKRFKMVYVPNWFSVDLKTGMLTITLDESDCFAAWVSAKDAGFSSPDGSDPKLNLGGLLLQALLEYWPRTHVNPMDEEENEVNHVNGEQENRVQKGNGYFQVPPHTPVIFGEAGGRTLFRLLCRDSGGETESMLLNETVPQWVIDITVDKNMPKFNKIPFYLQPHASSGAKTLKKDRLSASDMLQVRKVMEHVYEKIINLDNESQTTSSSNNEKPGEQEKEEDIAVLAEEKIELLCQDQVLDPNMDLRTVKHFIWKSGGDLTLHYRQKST
As for E444K, the “effect of a mutation on the interaction” value is “disrupting interaction strength”.

Values taken from IntAct's records for PubMed 26388029.
